Target: T1, murine NKG2D on NK cells / splenocytes (mouse, UniProt O54709 1-232)
T1 construct: whole, on cells; also called NKG2D receptor
T1 sequence: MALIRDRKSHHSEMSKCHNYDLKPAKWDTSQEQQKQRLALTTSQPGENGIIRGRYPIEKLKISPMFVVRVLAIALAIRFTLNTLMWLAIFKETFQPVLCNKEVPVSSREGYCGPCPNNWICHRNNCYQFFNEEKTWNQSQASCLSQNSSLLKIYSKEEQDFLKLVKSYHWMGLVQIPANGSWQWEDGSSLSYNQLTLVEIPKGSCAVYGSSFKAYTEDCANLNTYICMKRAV
Experiment: flow cytometry, fluorescently labeled construct on bulk splenocytes at 37° C.

B1: OMCP-mutIL-2 (R38A, F42K, C125S IL2-OMCP construct) (other)
chain: HKLAFNFNLEINGSDTHSTVDVYLDDSQIITFDGKDIRPTIPFMIGDEIFLPFYKNVFSEFFSLFRRVPTSTPYEDLTYFYECDYTDNKSTFDQFYLYNGEEYTVKTQEATNKNMWLTTSEFRLKKWFDGEDCIMHLRSLVRKMEDSKRNTGGTGSSGSSDYKDDDDKHHHHHHHHGSSGSSAPTSSSTKKTQLQLEHLLLDLQMILNGINNYKNPKLTAMLTKKFYMPKKATELKHLQCLEEELKPLEEVLNLAQSKNFHLRPRDLISNINVIVLELKGSETTFMCEYADETATIVEFLNRWITFSQSIISTLT
notes: also called OMCP-mutant IL-2; OMCP-IL2 construct
B1: binds.

Source: patent US20240092854A1 (WASHINGTON UNIVERSITY, published 2024)
